How the values were obtained:
[1] = molecular target: T1, human programmed cell death protein 1 (hPD-1) C93S (aa 24-167) (Homo sapiens, UniProt Q15116, C93S); test: SPR; Carterra LSA; Fab from the ammonium sulfate precipitate of the culture supernatant immobilised on a NiHC200M chip; hPD-1 (1-1024 nM) or mPD-1-Fc (4-1024 nM) as analyte, fourfold dilution series, no regeneration; HBS-EP pH 7.4, 25 °C; medians over the spots of a construct, KD = koff/kon; conditions: one partner purified
T1 construct: made as a fusion with a TEV site and human Fc; the Fc was cut off with TEV protease; source: Expi293F, purified (Protein A, TEV cleavage of Fc, SEC; monomer fractions); not shown: Fc (human), C-terminal, cleaved
T1 sequence (Q15116 24-167 C93S): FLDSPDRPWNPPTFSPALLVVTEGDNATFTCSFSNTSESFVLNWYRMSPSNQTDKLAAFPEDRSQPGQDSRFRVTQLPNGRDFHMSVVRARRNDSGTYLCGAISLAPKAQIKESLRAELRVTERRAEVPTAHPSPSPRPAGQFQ
In short: (§1)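 Fabs from Brevibacillus culture supernatants were ammonium sulfate-precipitated, redissolved in HBS-EP and captured in duplicate on a NiHC200M chip (Carterra LSA, 25 °C). Human PD-1 (1–1024 nM) or mouse PD-1-Fc (4–1024 nM) flowed as fourfold series without regeneration, with 10 min association and 5 min dissociation; unconfirmed binders were set to kon 10^3 […], koff 10^−2 s^−1. Rates came from kdka model fits (slow- or fast-dissociation settings, best fit); KD is koff/kon from per-construct medians.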

[2] = molecular target: T2, mouse programmed cell death protein 1 Fc fusion protein (mPD-1-Fc), mPD-1 C60S (aa 25-167) (Mus musculus, UniProt Q02242, stabilised); test: as above; conditions: one partner purified
T2 construct: not cleaved; source: Expi293F, purified (Protein A, SEC; dimeric fraction); not shown: Fc (human), C-terminal, kept
In short: as §1

Binder	Kd [1] [nM]	koff [1] [s⁻¹]	kon [1] [M⁻¹ s⁻¹]	Kd [2] [nM]	koff [2] [s⁻¹]	kon [2] [M⁻¹ s⁻¹]
toripalimab Fab L.S28A (Fab, V domains shown, as the heavy chain of Sm3; light chain of Sm3 with this change; numbers count from the chain's first residue; source: Brevibacillus, culture supernatant (ammonium sulfate precipitate); not shown: 6xHis, C-terminal, kept; 6xHN, C-terminal, kept) VH: QGQLVQSGAEVKKPGASVKVSCKASGYTFTDYEMHWVRQAPIHGLEWIGVIESETGGTAYNQKFKGRVTITADKSTSTAYMELSSLRSEDTAVYYCAREGITTVATTYYWYFDVWGQGTTVTVSS VL: DVVMTQSPLSLPVTLGQPASISCRSSQAIVHSNGNTYLEWYLQKPGQSPQLLIYKVSNRFSGVPDRFSGSGSGTDFTLKISRVEAEDVGVYYCFQGSHVPLTFGQGTKLEIK	< 0.632	< 1e-05	15800	96.3	0.00303	31400
toripalimab Fab L.S28Y (Fab, V domains shown, as the heavy chain of Sm3; light chain of Sm3 with this change; numbers count from the chain's first residue; source: Brevibacillus, culture supernatant (ammonium sulfate precipitate); not shown: 6xHis, C-terminal, kept; 6xHN, C-terminal, kept) VH: QGQLVQSGAEVKKPGASVKVSCKASGYTFTDYEMHWVRQAPIHGLEWIGVIESETGGTAYNQKFKGRVTITADKSTSTAYMELSSLRSEDTAVYYCAREGITTVATTYYWYFDVWGQGTTVTVSS VL: DVVMTQSPLSLPVTLGQPASISCRSSQYIVHSNGNTYLEWYLQKPGQSPQLLIYKVSNRFSGVPDRFSGSGSGTDFTLKISRVEAEDVGVYYCFQGSHVPLTFGQGTKLEIK	< 0.792	< 1e-05	12600	137	0.00438	31900
toripalimab Fab L.I29A (Fab, V domains shown, as the heavy chain of Sm3; light chain of Sm3 with this change; numbers count from the chain's first residue; source: Brevibacillus, culture supernatant (ammonium sulfate precipitate); not shown: 6xHis, C-terminal, kept; 6xHN, C-terminal, kept) VH: QGQLVQSGAEVKKPGASVKVSCKASGYTFTDYEMHWVRQAPIHGLEWIGVIESETGGTAYNQKFKGRVTITADKSTSTAYMELSSLRSEDTAVYYCAREGITTVATTYYWYFDVWGQGTTVTVSS VL: DVVMTQSPLSLPVTLGQPASISCRSSQSAVHSNGNTYLEWYLQKPGQSPQLLIYKVSNRFSGVPDRFSGSGSGTDFTLKISRVEAEDVGVYYCFQGSHVPLTFGQGTKLEIK	< 0.466	< 1e-05	21500	64	0.00268	41800
toripalimab Fab L.I29Y (Fab, V domains shown, as the heavy chain of Sm3; light chain of Sm3 with this change; numbers count from the chain's first residue; source: Brevibacillus, culture supernatant (ammonium sulfate precipitate); not shown: 6xHis, C-terminal, kept; 6xHN, C-terminal, kept) VH: QGQLVQSGAEVKKPGASVKVSCKASGYTFTDYEMHWVRQAPIHGLEWIGVIESETGGTAYNQKFKGRVTITADKSTSTAYMELSSLRSEDTAVYYCAREGITTVATTYYWYFDVWGQGTTVTVSS VL: DVVMTQSPLSLPVTLGQPASISCRSSQSYVHSNGNTYLEWYLQKPGQSPQLLIYKVSNRFSGVPDRFSGSGSGTDFTLKISRVEAEDVGVYYCFQGSHVPLTFGQGTKLEIK	30.4	0.000378	12400	80.6	0.00575	71400
toripalimab Fab L.V30A (Fab, V domains shown, as the heavy chain of Sm3; light chain of Sm3 with this change; numbers count from the chain's first residue; source: Brevibacillus, culture supernatant (ammonium sulfate precipitate); not shown: 6xHis, C-terminal, kept; 6xHN, C-terminal, kept) VH: QGQLVQSGAEVKKPGASVKVSCKASGYTFTDYEMHWVRQAPIHGLEWIGVIESETGGTAYNQKFKGRVTITADKSTSTAYMELSSLRSEDTAVYYCAREGITTVATTYYWYFDVWGQGTTVTVSS VL: DVVMTQSPLSLPVTLGQPASISCRSSQSIAHSNGNTYLEWYLQKPGQSPQLLIYKVSNRFSGVPDRFSGSGSGTDFTLKISRVEAEDVGVYYCFQGSHVPLTFGQGTKLEIK	2.21	6.23e-05	28200	255	0.00954	37400
toripalimab Fab L.V30Y (Fab, V domains shown, as the heavy chain of Sm3; light chain of Sm3 with this change; numbers count from the chain's first residue; source: Brevibacillus, culture supernatant (ammonium sulfate precipitate); not shown: 6xHis, C-terminal, kept; 6xHN, C-terminal, kept) VH: QGQLVQSGAEVKKPGASVKVSCKASGYTFTDYEMHWVRQAPIHGLEWIGVIESETGGTAYNQKFKGRVTITADKSTSTAYMELSSLRSEDTAVYYCAREGITTVATTYYWYFDVWGQGTTVTVSS VL: DVVMTQSPLSLPVTLGQPASISCRSSQSIYHSNGNTYLEWYLQKPGQSPQLLIYKVSNRFSGVPDRFSGSGSGTDFTLKISRVEAEDVGVYYCFQGSHVPLTFGQGTKLEIK	0.91	1.6e-05	17600	173	0.00719	41500
toripalimab Fab L.S32A (Fab, V domains shown, as the heavy chain of Sm3; light chain of Sm3 with this change; numbers count from the chain's first residue; source: Brevibacillus, culture supernatant (ammonium sulfate precipitate); not shown: 6xHis, C-terminal, kept; 6xHN, C-terminal, kept) VH: QGQLVQSGAEVKKPGASVKVSCKASGYTFTDYEMHWVRQAPIHGLEWIGVIESETGGTAYNQKFKGRVTITADKSTSTAYMELSSLRSEDTAVYYCAREGITTVATTYYWYFDVWGQGTTVTVSS VL: DVVMTQSPLSLPVTLGQPASISCRSSQSIVHANGNTYLEWYLQKPGQSPQLLIYKVSNRFSGVPDRFSGSGSGTDFTLKISRVEAEDVGVYYCFQGSHVPLTFGQGTKLEIK	< 1.35	< 1e-05	7410	185	0.0077	41600
toripalimab Fab L.S32Y (Fab, V domains shown, as the heavy chain of Sm3; light chain of Sm3 with this change; numbers count from the chain's first residue; source: Brevibacillus, culture supernatant (ammonium sulfate precipitate); not shown: 6xHis, C-terminal, kept; 6xHN, C-terminal, kept) VH: QGQLVQSGAEVKKPGASVKVSCKASGYTFTDYEMHWVRQAPIHGLEWIGVIESETGGTAYNQKFKGRVTITADKSTSTAYMELSSLRSEDTAVYYCAREGITTVATTYYWYFDVWGQGTTVTVSS VL: DVVMTQSPLSLPVTLGQPASISCRSSQSIVHYNGNTYLEWYLQKPGQSPQLLIYKVSNRFSGVPDRFSGSGSGTDFTLKISRVEAEDVGVYYCFQGSHVPLTFGQGTKLEIK	< 0.678	< 1e-05	14800	95.6	0.00346	36100
toripalimab Fab L.N33A (Fab, V domains shown, as the heavy chain of Sm3; light chain of Sm3 with this change; numbers count from the chain's first residue; source: Brevibacillus, culture supernatant (ammonium sulfate precipitate); not shown: 6xHis, C-terminal, kept; 6xHN, C-terminal, kept) VH: QGQLVQSGAEVKKPGASVKVSCKASGYTFTDYEMHWVRQAPIHGLEWIGVIESETGGTAYNQKFKGRVTITADKSTSTAYMELSSLRSEDTAVYYCAREGITTVATTYYWYFDVWGQGTTVTVSS VL: DVVMTQSPLSLPVTLGQPASISCRSSQSIVHSAGNTYLEWYLQKPGQSPQLLIYKVSNRFSGVPDRFSGSGSGTDFTLKISRVEAEDVGVYYCFQGSHVPLTFGQGTKLEIK	< 0.341	< 1e-05	29300	278	0.0135	48400
toripalimab Fab L.N33Y (Fab, V domains shown, as the heavy chain of Sm3; light chain of Sm3 with this change; numbers count from the chain's first residue; source: Brevibacillus, culture supernatant (ammonium sulfate precipitate); not shown: 6xHis, C-terminal, kept; 6xHN, C-terminal, kept) VH: QGQLVQSGAEVKKPGASVKVSCKASGYTFTDYEMHWVRQAPIHGLEWIGVIESETGGTAYNQKFKGRVTITADKSTSTAYMELSSLRSEDTAVYYCAREGITTVATTYYWYFDVWGQGTTVTVSS VL: DVVMTQSPLSLPVTLGQPASISCRSSQSIVHSYGNTYLEWYLQKPGQSPQLLIYKVSNRFSGVPDRFSGSGSGTDFTLKISRVEAEDVGVYYCFQGSHVPLTFGQGTKLEIK	< 0.585	< 1e-05	17100	192	0.00979	50900
toripalimab Fab L.G34A (Fab, V domains shown, as the heavy chain of Sm3; light chain of Sm3 with this change; numbers count from the chain's first residue; source: Brevibacillus, culture supernatant (ammonium sulfate precipitate); not shown: 6xHis, C-terminal, kept; 6xHN, C-terminal, kept) VH: QGQLVQSGAEVKKPGASVKVSCKASGYTFTDYEMHWVRQAPIHGLEWIGVIESETGGTAYNQKFKGRVTITADKSTSTAYMELSSLRSEDTAVYYCAREGITTVATTYYWYFDVWGQGTTVTVSS VL: DVVMTQSPLSLPVTLGQPASISCRSSQSIVHSNANTYLEWYLQKPGQSPQLLIYKVSNRFSGVPDRFSGSGSGTDFTLKISRVEAEDVGVYYCFQGSHVPLTFGQGTKLEIK	2.35	4.8e-05	20500	202	0.00961	47500
toripalimab Fab L.G34Y (Fab, V domains shown, as the heavy chain of Sm3; light chain of Sm3 with this change; numbers count from the chain's first residue; source: Brevibacillus, culture supernatant (ammonium sulfate precipitate); not shown: 6xHis, C-terminal, kept; 6xHN, C-terminal, kept) VH: QGQLVQSGAEVKKPGASVKVSCKASGYTFTDYEMHWVRQAPIHGLEWIGVIESETGGTAYNQKFKGRVTITADKSTSTAYMELSSLRSEDTAVYYCAREGITTVATTYYWYFDVWGQGTTVTVSS VL: DVVMTQSPLSLPVTLGQPASISCRSSQSIVHSNYNTYLEWYLQKPGQSPQLLIYKVSNRFSGVPDRFSGSGSGTDFTLKISRVEAEDVGVYYCFQGSHVPLTFGQGTKLEIK	< 0.445	< 1e-05	22500	154	0.00613	39900
toripalimab Fab L.N35A (Fab, V domains shown, as the heavy chain of Sm3; light chain of Sm3 with this change; numbers count from the chain's first residue; source: Brevibacillus, culture supernatant (ammonium sulfate precipitate); not shown: 6xHis, C-terminal, kept; 6xHN, C-terminal, kept) VH: QGQLVQSGAEVKKPGASVKVSCKASGYTFTDYEMHWVRQAPIHGLEWIGVIESETGGTAYNQKFKGRVTITADKSTSTAYMELSSLRSEDTAVYYCAREGITTVATTYYWYFDVWGQGTTVTVSS VL: DVVMTQSPLSLPVTLGQPASISCRSSQSIVHSNGATYLEWYLQKPGQSPQLLIYKVSNRFSGVPDRFSGSGSGTDFTLKISRVEAEDVGVYYCFQGSHVPLTFGQGTKLEIK	< 1.31	< 1e-05	7640	189	0.00781	41200
toripalimab Fab L.N35Y (Fab, V domains shown, as the heavy chain of Sm3; light chain of Sm3 with this change; numbers count from the chain's first residue; source: Brevibacillus, culture supernatant (ammonium sulfate precipitate); not shown: 6xHis, C-terminal, kept; 6xHN, C-terminal, kept) VH: QGQLVQSGAEVKKPGASVKVSCKASGYTFTDYEMHWVRQAPIHGLEWIGVIESETGGTAYNQKFKGRVTITADKSTSTAYMELSSLRSEDTAVYYCAREGITTVATTYYWYFDVWGQGTTVTVSS VL: DVVMTQSPLSLPVTLGQPASISCRSSQSIVHSNGYTYLEWYLQKPGQSPQLLIYKVSNRFSGVPDRFSGSGSGTDFTLKISRVEAEDVGVYYCFQGSHVPLTFGQGTKLEIK	< 0.431	< 1e-05	23200	194	0.00881	45500
toripalimab Fab L.T36A (Fab, V domains shown, as the heavy chain of Sm3; light chain of Sm3 with this change; numbers count from the chain's first residue; source: Brevibacillus, culture supernatant (ammonium sulfate precipitate); not shown: 6xHis, C-terminal, kept; 6xHN, C-terminal, kept) VH: QGQLVQSGAEVKKPGASVKVSCKASGYTFTDYEMHWVRQAPIHGLEWIGVIESETGGTAYNQKFKGRVTITADKSTSTAYMELSSLRSEDTAVYYCAREGITTVATTYYWYFDVWGQGTTVTVSS VL: DVVMTQSPLSLPVTLGQPASISCRSSQSIVHSNGNAYLEWYLQKPGQSPQLLIYKVSNRFSGVPDRFSGSGSGTDFTLKISRVEAEDVGVYYCFQGSHVPLTFGQGTKLEIK	< 1.51	< 1e-05	6610	331	0.0155	46700

— PMC10663500, “High-throughput analysis system of interaction kinetics for data-driven antibody design” (Scientific Reports, 2023)
